The target in test [1] is Lig A9 (9th tandem Big repeat of LigA) (L. interrogans serovar Pomona). Briefly: SEC; Superose 12 10/300 GL, 25 mM HEPES pH 7.0, 50 mM KCl, with and without 3 mM CaCl2; column calibrated with molecular mass markers; self-association, monomer to dimer. (SEC sorts molecules by how far they enter the pores of the column.)
Test [2] has as its target Lig A10 (10th tandem Big repeat of LigA) (L. interrogans serovar Pomona). Described as above.
Test [3] deals with LigBCen2 (L. interrogans serovar Pomona). The test can be described thus: SEC; Superose 12 10/300 GL, 50 mM Tris pH 7.0, 50 mM KCl, with and without 3 mM CaCl2; column calibrated with molecular mass markers; self-association, monomer to dimer.

Broadly, the stoichiometry N is a count of units in the complex or per binding partner.

Substance “Lig A9 (9th tandem Big repeat of LigA) (domain or fragment)” displayed a stoichiometry N in test [1] of 2.

Turning to “Lig A10 (10th tandem Big repeat of LigA) (domain or fragment)”, the stoichiometry N in test [2] amounted to 2.

In test [3], LigBCen2 (domain or fragment) gave a stoichiometry N of 2.

The values above are taken from article PMC3012076.
